Reference: paper PMC9668914, “Understanding VPAC receptor family peptide binding and selectivity” (Nature Communications, 2022)

Target: PACAP type 1 receptor (PAC1R), PAC1null splice variant, FLAG and His tagged (UniProt P41586)
Sequence (P41586 21-468, change not shown): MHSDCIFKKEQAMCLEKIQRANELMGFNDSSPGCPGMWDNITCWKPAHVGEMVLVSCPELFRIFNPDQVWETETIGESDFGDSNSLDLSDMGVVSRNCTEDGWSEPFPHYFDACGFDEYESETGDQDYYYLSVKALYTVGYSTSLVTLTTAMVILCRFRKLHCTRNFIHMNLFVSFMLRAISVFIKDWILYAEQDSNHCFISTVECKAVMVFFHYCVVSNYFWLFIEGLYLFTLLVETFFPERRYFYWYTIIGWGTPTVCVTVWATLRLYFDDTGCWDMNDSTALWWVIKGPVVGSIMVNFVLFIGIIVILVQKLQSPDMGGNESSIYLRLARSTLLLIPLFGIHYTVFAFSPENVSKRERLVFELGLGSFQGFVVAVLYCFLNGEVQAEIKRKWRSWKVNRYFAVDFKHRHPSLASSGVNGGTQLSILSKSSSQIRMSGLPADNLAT

Substance | cAMP potency in COS-7 cells transfected with PAC1R, fold change relative to PACAP27 | cAMP potency in COS-7 cells transfected with PAC1R, fold change relative to VIP
Ala4 PACAP27 (peptide) | 5 fold | –
Gly4 VIP (peptide) | – | 3 fold
